# Test results: IntAct's records for PubMed 15358143
# Molecular target: ppia_human PPIA (UniProt P62937)
# Sequence (P62937 whole entry, looked up): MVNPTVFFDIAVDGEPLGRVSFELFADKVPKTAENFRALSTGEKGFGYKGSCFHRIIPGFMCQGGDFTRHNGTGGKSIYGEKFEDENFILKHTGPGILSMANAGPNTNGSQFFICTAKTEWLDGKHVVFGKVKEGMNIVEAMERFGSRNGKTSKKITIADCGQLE
row,Substance,effect of a mutation on the interaction
1,"Nucleoprotein (Human SARS coronavirus), P59595 W302A",decreasing interaction strength
2,"Nucleoprotein (Human SARS coronavirus), P59595 Q307A",decreasing interaction strength
3,"Nucleoprotein (Human SARS coronavirus), P59595 I305A",decreasing interaction strength
4,"Nucleoprotein (Human SARS coronavirus), P59595 Q307D",decreasing interaction strength
